Sequences and labels used below:
B1: MGC16075 (parent)
chain: AGSRQALSFEVPPCNYDPEKWIQ
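Also: lentivirally expressed fusions sorted by FACS into six bins by GFP to DsRed ratio, PSI derived from sequencing read proportions per bin multiplied by bin number.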

In this data set the parent is B1. Description: protein stability index of a GFP-peptide fusion (GPS, HEK-293T) (PSI 1-6); higher = more stable. The settings on record: c terminus: native.
For AGSRQALSFEVPPCNFDPEKWIQ, the protein stability index turned out to be 1.68. Take AGSRQALSFEVPPCNEDPEKWIQ: the protein stability index was 2.64.

Take AGSRQALSFEVPPCNLDPEKWIQ: the protein stability index is 2.04. AGSRQALSFEVPPCNGDPEKWIQ: the protein stability index was determined as 3.5.

As to AGSRQALSFEVPPCNIDPEKWIQ, the protein stability index was determined as 2.01. For AGSRQALSFEVPPCNSDPEKWIQ the value was 1.48; for AGSRQALSFEVPPCNTDPEKWIQ, 2.53.

Turning to AGSRQALSFEVPPCNRDPEKWIQ, the protein stability index stood at 1.24. Take AGSRQALSFEVPPCNVDPEKWIQ: the protein stability index is 2.47. For AGSRQALSFEVPPCNKDPEKWIQ the value was 1.61; for AGSRQALSFEVPPCNADPEKWIQ, 1.54. AGSRQALSFEVPPCNWDPEKWIQ: the protein stability index came to 1.47.

With AGSRQALSFEVPPCNCDPEKWIQ, the protein stability index worked out at 2.17.

With AGSRQALSFEVPPCNHDPEKWIQ, the protein stability index was found to be 1.46. In the case of AGSRQALSFEVPPCNNDPEKWIQ, the protein stability index was determined as 2.2. For AGSRQALSFEVPPCNMDPEKWIQ the value was 2.03; for AGSRQALSFEVPPCNPDPEKWIQ, 2.22; for AGSRQALSFEVPPCNDDPEKWIQ, 2.52. In the case of AGSRQALSFEVPMCNYDPEKWIQ, the protein stability index turned out to be 1.3.

For AGSRQALSFEVPHCNYDPEKWIQ, the protein stability index came out at 1.2.

Take AGSRQALSFEVPECNYDPEKWIQ: the protein stability index stood at 1.44. Regarding AGSRQALSFEVPLCNYDPEKWIQ, the protein stability index amounted to 1.62. For the variant AGSRQALSFEVPSCNYDPEKWIQ, the protein stability index came to 2.66.

AGSRQALSFEVPDCNYDPEKWIQ: the protein stability index came out at 1.8. Consider AGSRQALSFEVPGCNYDPEKWIQ, for which the protein stability index turned out to be 2.1.

AGSRQALSFEVPYCNYDPEKWIQ: the protein stability index was 2.88. With AGSRQALSFEVPVCNYDPEKWIQ the figure was 2.19; with AGSRQALSFEVPKCNYDPEKWIQ, 2.34; with AGSRQALSFEVPACNYDPEKWIQ, 1.43. On to AGSRQALSFEVPNCNYDPEKWIQ, for which the protein stability index came to 1.27. For AGSRQALSFEVPICNYDPEKWIQ, the protein stability index is 2.7.

Take AGSRQALSFEVPTCNYDPEKWIQ: the protein stability index was 1.99. With AGSRQALSFEVPCCNYDPEKWIQ, the protein stability index came to 3. AGSRQALSFEVPQCNYDPEKWIQ: the protein stability index amounted to 2.03. As for AGSRQALSFEVPWCNYDPEKWIQ, the protein stability index stood at 1.98. With AGSRQALSFEVPFCNYDPEKWIQ the figure was 2.1; with AGSRQALSFEVPRCNYDPEKWIQ, 1.29; with AGSRQALSFRVPPCNYDPEKWIQ, 1.97. For AGSRQALSFDVPPCNYDPEKWIQ, the protein stability index turned out to be 2.6. With AGSRQALSFYVPPCNYDPEKWIQ, the protein stability index stood at 1.75.

AGSRQALSFQVPPCNYDPEKWIQ: the protein stability index was 1.23. Turning to AGSRQALSFSVPPCNYDPEKWIQ, the protein stability index came out at 2.44.

Consider AGSRQALSFGVPPCNYDPEKWIQ, for which the protein stability index was determined as 1.83.

With AGSRQALSFVVPPCNYDPEKWIQ, the protein stability index was 1.08. As to AGSRQALSFPVPPCNYDPEKWIQ, the protein stability index amounted to 2.3. Regarding AGSRQALSFKVPPCNYDPEKWIQ, the protein stability index came to 1.67. As for AGSRQALSFAVPPCNYDPEKWIQ, the protein stability index was found to be 3.25.

On to AGSRQALSFIVPPCNYDPEKWIQ, for which the protein stability index is 2.29. Consider AGSRQALSFHVPPCNYDPEKWIQ, for which the protein stability index is 3.09. Consider AGSRQALSFNVPPCNYDPEKWIQ, for which the protein stability index amounted to 1.7. Take AGSRQALSFMVPPCNYDPEKWIQ: the protein stability index was 2.56.

As to AGSRQALSFCVPPCNYDPEKWIQ, the protein stability index stood at 2.27.

In the case of AGSRQAISFEVPPCNYDPEKWIQ, the protein stability index came to 2.07. Take AGSRQANSFEVPPCNYDPEKWIQ: the protein stability index worked out at 2.72.

Take AGSRQAWSFEVPPCNYDPEKWIQ: the protein stability index stood at 2.77. For the variant AGSRQAASFEVPPCNYDPEKWIQ, the protein stability index was found to be 2.09. Consider AGSRQATSFEVPPCNYDPEKWIQ, for which the protein stability index worked out at 2.42. In the case of AGSRQARSFEVPPCNYDPEKWIQ, the protein stability index turned out to be 2.5. Take AGSRQAHSFEVPPCNYDPEKWIQ: the protein stability index stood at 2.33. Take AGSRQAESFEVPPCNYDPEKWIQ: the protein stability index was determined as 3.23.

AGSRQAMSFEVPPCNYDPEKWIQ: the protein stability index worked out at 1.86. As for AGSRQAYSFEVPPCNYDPEKWIQ, the protein stability index was 1.76.

Take AGSRQAQSFEVPPCNYDPEKWIQ: the protein stability index stood at 2.57.

For AGSRQAKSFEVPPCNYDPEKWIQ, the protein stability index is 1.82. AGSRQADSFEVPPCNYDPEKWIQ: the protein stability index worked out at 2.45. For the variant AGSRQAGSFEVPPCNYDPEKWIQ, the protein stability index was found to be 2.06.

Regarding AGSRQAPSFEVPPCNYDPEKWIQ, the protein stability index amounted to 1.26. As to AGSRQAFSFEVPPCNYDPEKWIQ, the protein stability index is 3.58. Take AGSRQACSFEVPPCNYDPEKWIQ: the protein stability index was found to be 2.75. Regarding AGSRQAVSFEVPPCNYDPEKWIQ, the protein stability index came to 1.78. For the variant AGSRQASSFEVPPCNYDPEKWIQ, the protein stability index was found to be 2.11. Regarding AGSRQALSFEVPPFNYDPEKWIQ, the protein stability index came to 1.5.

With AGSRQALSFEVPPDNYDPEKWIQ, the protein stability index was determined as 2.

As for AGSRQALSFEVPPRNYDPEKWIQ, the protein stability index was 1.92. Turning to AGSRQALSFEVPPWNYDPEKWIQ, the protein stability index is 1.56.

Turning to AGSRQALSFEVPPLNYDPEKWIQ, the protein stability index was found to be 1.39. On to AGSRQALSFEVPPQNYDPEKWIQ, for which the protein stability index came to 2.05. As to AGSRQALSFEVPPVNYDPEKWIQ, the protein stability index was determined as 1.95. Consider AGSRQALSFEVPPSNYDPEKWIQ, for which the protein stability index was determined as 2.56. Regarding AGSRQALSFEVPPNNYDPEKWIQ, the protein stability index is 1.92. For AGSRQALSFEVPPYNYDPEKWIQ the value was 2.23; for AGSRQALSFEVPPMNYDPEKWIQ, 1.23; for AGSRQALSFEVPPINYDPEKWIQ, 1.59. Consider AGSRQALSFEVPPGNYDPEKWIQ, for which the protein stability index turned out to be 1.42. As to AGSRQALSFEVPPTNYDPEKWIQ, the protein stability index was 2.2.

For the variant AGSRQALSFEVPPKNYDPEKWIQ, the protein stability index is 1.64. For AGSRQALSFEVPPENYDPEKWIQ the value was 2.21; for AGSRQALSFEVPPHNYDPEKWIQ, 2.1. Turning to AGSRQALSFEVPPANYDPEKWIQ, the protein stability index stood at 2.28. On to AGSRQALSFEVPPCNYAPEKWIQ, for which the protein stability index was determined as 2.18. For AGSRQALSFEVPPCNYCPEKWIQ the value was 1.29; for AGSRQALSFEVPPCNYFPEKWIQ, 1.57. In the case of AGSRQALSFEVPPCNYKPEKWIQ, the protein stability index worked out at 3.23. In the case of AGSRQALSFEVPPCNYGPEKWIQ, the protein stability index came to 2.29. In the case of AGSRQALSFEVPPCNYHPEKWIQ, the protein stability index is 2.12.

For the variant AGSRQALSFEVPPCNYIPEKWIQ, the protein stability index was found to be 2.17. Consider AGSRQALSFEVPPCNYEPEKWIQ, for which the protein stability index is 2.07.
